Assay results reported in publication PMC10696041 (2023).

Biological target: T1, PCPE1 (Homo sapiens (Human), UniProt Q15113)
T1 chain: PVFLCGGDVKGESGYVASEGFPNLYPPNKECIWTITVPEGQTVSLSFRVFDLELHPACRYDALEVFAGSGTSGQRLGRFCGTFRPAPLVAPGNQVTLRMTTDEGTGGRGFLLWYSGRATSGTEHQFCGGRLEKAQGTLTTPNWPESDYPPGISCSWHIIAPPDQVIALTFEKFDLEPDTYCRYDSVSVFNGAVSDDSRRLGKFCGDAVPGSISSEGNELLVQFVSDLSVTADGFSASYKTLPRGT
Test: Ki app, fluorogenic peptide

apparent Ki: > 150 nM
B1: BMP1 (protein)
chain: AATSRPERVWPDGVIPFVIGGNFTGSQRAVFRQAMRHWEKHTCVTFLERTDEDSYIVFTYRPCGCCSYVGRRGGGPQAISIGKNCDKFGIVVHELGHVVGFWHEHTRPDRDRHVSIVRENIQPGQEYNFLKMEPQEVESLGETYDFDSIMHYARNTFSRGIFLDTIVPKYEVNGVKPPIGQRTRLSKGDIAQARKLYKCPACGETLQDSTGNFSSPEYPNGYSAHMHCVWRISVTPGEKIILNFTSLDLYRSRLCWYDYVEVRDGFWRKAPLRGRFCGSKLPEPIVSTDSRLWVEFRSSSNWVGKGFFAVYEAICGGDVKKDYGHIQSPNYPDDYRPSKVCIWRIQVSEGFHVGLTFQSFEIERHDSCAYDYLEVRDGHSESSTLIGRYCGYEKPDDIKSTSSRLWLKFVSDGSINKAGFAVNFFK
